Two substances from patent US20050065320A1 can be followed below.

Test [1] concerns the target g12 mutant (Env protein) of the HIV-1 isolate 133 (HIV-1 primary isolate 133). The test can be described thus: capture ELISA, 17b 1 µg/ml. (An ELISA detects its analyte on a solid surface through an enzyme-linked reagent.)
Test [2] has the same target. The test can be described thus: capture ELISA on lysates and supernatants, F105 1 µg/ml.

On to 17b human monoclonal antibody, for which, in test [1], the signal relative to the native protein is 3 times. As for F105 human monoclonal antibody (NIBSC), the signal relative to the native protein in test [2] is < 4.5 times.
